What was measured:
RON-ECD-Fc [1] = target: T1, RON-ECD-Fc (human, UniProt Q04912 25-957); assay: ELISA, coated ECD-Fc, antibody 2.143 ng/mL
T1 construct: extracellular domain; Bought reagent; not shown: Fc part of the bought fusion
T1 sequence (looked up): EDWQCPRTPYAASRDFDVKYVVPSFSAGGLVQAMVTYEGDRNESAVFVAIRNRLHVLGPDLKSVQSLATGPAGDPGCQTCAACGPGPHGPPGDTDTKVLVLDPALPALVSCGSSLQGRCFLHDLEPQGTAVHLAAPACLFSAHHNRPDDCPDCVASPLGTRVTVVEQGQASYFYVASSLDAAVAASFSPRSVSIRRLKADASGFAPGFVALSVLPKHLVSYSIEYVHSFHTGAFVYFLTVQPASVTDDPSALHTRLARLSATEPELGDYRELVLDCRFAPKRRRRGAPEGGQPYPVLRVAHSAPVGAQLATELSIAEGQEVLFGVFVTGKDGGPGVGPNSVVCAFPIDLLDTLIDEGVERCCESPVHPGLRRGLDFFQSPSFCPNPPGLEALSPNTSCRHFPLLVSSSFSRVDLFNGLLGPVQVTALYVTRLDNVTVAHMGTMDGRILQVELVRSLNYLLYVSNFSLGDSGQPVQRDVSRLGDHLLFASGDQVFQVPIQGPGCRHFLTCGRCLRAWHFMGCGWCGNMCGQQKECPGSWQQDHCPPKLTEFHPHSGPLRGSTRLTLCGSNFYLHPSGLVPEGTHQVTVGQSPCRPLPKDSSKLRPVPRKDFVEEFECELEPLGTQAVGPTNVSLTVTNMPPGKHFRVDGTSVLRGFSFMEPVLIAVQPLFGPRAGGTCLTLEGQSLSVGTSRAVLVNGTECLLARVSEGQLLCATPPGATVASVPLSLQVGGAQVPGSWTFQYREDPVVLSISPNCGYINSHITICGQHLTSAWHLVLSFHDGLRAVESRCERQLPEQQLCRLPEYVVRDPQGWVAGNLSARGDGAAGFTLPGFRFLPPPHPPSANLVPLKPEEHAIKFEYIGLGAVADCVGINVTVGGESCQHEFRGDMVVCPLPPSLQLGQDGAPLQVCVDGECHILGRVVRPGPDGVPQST
Protocol: (§1) Wells of 96-well EIA/RIA high binding plates (Costar, #2592) are coated with 100 μL of 1 μg/mL human c-Met extracellular domain (ECD)-Fc-Flis fusion (SEQ ID NO:72), RON-ECD-Fc (R&D Systems, #1947-MS), or PlexinA2-ECD-Fc (Abnova, Taipei, Taiwan #H00005362-P01) in coating buffer (BioFX Labs, # COAT-1000-01) overnight at 4° C. […] After the plates are washed, 100 μL/well of substrate solution (BioFx, #TMBW-1000-01) are added and the plates are incubated for 10 min. at room temperature. 100 μL/well of stop solution (BioFx, # LSTP-1000-01) are added to stop the reaction. The colorimetric signals are developed and read at 450 nm using a SpectraMax 190 plate reader (Molecular Devices, Sunnyvale, Calif.). c-Met antibody binding to c-Met, RON and PlexinA2 ECDs is proportional to color signal production.

Human c-Met-Flis-Fc ECD [2] = target: T2, Human c-Met-Flis-Fc ECD (human); assay: ELISA, coated ECD-Fc, antibody 2.143 ng/mL
T2 construct: also called human c-Met extracellular domain (ECD)-Fc-Flis fusion; Human cMet-ECD-Fc-Flis
T2 sequence (chain, as listed by the source limits assumed): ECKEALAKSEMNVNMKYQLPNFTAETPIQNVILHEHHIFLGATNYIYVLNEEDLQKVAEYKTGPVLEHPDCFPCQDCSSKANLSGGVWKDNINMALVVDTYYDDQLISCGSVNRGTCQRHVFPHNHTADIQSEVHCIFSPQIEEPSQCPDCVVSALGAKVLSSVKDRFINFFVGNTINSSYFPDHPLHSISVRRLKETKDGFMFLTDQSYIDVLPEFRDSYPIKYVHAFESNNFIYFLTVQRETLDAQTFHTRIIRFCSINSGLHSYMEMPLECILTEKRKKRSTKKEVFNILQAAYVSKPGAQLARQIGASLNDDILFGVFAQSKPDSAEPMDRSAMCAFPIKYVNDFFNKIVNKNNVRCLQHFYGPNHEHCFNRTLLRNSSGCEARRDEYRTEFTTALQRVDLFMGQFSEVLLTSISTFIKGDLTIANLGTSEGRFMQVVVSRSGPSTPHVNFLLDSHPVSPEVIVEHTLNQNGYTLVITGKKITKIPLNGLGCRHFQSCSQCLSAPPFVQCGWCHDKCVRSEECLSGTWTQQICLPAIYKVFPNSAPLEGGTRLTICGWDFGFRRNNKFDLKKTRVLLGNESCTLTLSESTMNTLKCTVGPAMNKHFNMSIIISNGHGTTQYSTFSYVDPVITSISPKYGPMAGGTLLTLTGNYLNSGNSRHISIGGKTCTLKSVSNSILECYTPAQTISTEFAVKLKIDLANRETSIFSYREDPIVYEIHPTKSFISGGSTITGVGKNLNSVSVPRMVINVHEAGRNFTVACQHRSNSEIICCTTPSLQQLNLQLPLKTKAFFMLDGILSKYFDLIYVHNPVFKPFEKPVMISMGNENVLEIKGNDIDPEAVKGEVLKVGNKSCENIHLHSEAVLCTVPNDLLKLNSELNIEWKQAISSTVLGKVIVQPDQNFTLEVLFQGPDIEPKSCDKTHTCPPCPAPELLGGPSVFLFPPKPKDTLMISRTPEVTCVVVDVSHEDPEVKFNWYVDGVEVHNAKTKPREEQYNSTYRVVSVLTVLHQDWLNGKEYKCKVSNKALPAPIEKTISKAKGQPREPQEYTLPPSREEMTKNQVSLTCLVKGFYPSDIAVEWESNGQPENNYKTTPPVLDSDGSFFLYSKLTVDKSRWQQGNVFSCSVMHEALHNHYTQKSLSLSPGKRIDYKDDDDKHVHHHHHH
Protocol: as §1

PlexinA2-ECD-Fc [3] = target: T3, PlexinA2-ECD-Fc (human, UniProt O75051 35-1237); assay: ELISA, coated ECD-Fc, antibody 2.143 ng/mL
T3 construct: extracellular domain; Bought reagent
T3 sequence (looked up): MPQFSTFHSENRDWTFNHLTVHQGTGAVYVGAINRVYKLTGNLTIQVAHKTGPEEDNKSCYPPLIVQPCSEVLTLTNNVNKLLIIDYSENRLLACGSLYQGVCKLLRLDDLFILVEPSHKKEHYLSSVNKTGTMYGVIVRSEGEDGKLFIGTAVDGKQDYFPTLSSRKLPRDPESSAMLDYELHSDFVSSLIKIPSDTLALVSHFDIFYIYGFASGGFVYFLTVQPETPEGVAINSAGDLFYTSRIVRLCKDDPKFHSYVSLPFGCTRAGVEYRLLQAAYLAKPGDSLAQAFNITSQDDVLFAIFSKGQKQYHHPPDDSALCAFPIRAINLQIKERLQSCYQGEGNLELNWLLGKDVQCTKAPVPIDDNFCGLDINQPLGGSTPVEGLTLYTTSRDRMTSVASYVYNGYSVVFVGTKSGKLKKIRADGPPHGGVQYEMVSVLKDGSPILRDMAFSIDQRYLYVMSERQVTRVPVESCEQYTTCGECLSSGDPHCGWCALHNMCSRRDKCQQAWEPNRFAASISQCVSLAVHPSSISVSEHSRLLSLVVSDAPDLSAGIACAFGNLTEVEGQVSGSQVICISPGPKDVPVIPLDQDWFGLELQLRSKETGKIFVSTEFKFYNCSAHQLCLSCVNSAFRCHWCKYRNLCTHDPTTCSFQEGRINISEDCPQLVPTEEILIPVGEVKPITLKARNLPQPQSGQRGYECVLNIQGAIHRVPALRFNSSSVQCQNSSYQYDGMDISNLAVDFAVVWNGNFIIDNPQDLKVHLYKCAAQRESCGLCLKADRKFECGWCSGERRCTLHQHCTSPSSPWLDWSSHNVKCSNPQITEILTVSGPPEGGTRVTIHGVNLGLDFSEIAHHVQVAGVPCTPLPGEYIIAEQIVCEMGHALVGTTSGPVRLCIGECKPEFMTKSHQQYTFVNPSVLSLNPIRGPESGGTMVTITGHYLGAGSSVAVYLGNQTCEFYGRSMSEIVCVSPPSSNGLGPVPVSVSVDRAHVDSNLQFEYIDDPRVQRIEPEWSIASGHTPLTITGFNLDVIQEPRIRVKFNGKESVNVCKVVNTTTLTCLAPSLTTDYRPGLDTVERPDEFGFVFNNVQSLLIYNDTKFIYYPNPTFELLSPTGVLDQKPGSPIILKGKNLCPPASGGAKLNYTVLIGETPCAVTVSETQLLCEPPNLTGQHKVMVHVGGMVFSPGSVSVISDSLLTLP
Protocol: as §1

RON-ECD-Fc [4] = target: T1, RON-ECD-Fc; assay: ELISA, coated ECD-Fc, antibody 77.160 ng/mL
Protocol: as §1

Human c-Met-Flis-Fc ECD [5] = target: T2, Human c-Met-Flis-Fc ECD; assay: ELISA, coated ECD-Fc, antibody 77.160 ng/mL
Protocol: as §1

PlexinA2-ECD-Fc [6] = target: T3, PlexinA2-ECD-Fc; assay: ELISA, coated ECD-Fc, antibody 77.160 ng/mL
Protocol: as §1

Average A450 nm (RON-ECD-Fc [1]): 0.098 A450 nm | Average A450 nm (Human c-Met-Flis-Fc ECD [2]): 2.42 A450 nm | Average A450 nm (PlexinA2-ECD-Fc [3]): 0.106 A450 nm | Average A450 nm (RON-ECD-Fc [4]): 0.09 A450 nm | Average A450 nm (Human c-Met-Flis-Fc ECD [5]): 4 A450 nm | Average A450 nm (PlexinA2-ECD-Fc [6]): 0.078 A450 nm
B1: C8-6 (antibody, human IgG2, kappa, V domains shown)
VH: QVQLVQSGAEVKKPGASVKVSCKASGYTFTDYYMHWVRQAPGQGLEWMGRVNPNRGGTTYNQKFEGRVTMTTDTSTSTAYMELRSLRSDDTAVYYCARTNWLDYWGQGTTVTVSS
VL: DIQMTQSPSSLSASVGDRVTITCSVSSSVSSIYLHWYQQKPGKAPKLLIYSTSNLASGVPSRFSGSGSGTDFTLTISSLQPEDFATYYCIQYSGYPLTFGGGTKVEIKR
notes: Called IgG4, kappa; also called Mab C8-6
